In this series the test system is ATP. The series is described as follows: switch fluorescence ratio, 500 uM ATP over buffer (Cy3 cluster intensity, sum of 5 cycles each) (fold (ratio)); higher = stronger signal-on switching upon ATP binding; sequences stand for … in TCGTCGGCAGCGTCAGATGTGTATAAGAGACAGTTTTTTTTTTTTTTTTTTTTTTTTT…TC. The note with it: aptamer strand: ATP DNA aptamer (quencher-CACCTGGGGGAGTATTGCGGAGGAAGG + anchor), 100 nM annealed; ATP concentration: 500 uM. The procedure, abridged:
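Switching-strand clusters labelled with Cy3 on a modified Illumina MiSeq flow-cell were annealed to 100 nM quencher-labelled ATP aptamer, imaged in selection buffer, and re-imaged after 15 min with 500 uM ATP at 22 °C. This was done over five cycles with NaOH stripping and re-annealing in between. The fluorescence ratio is summed target-cycle over summed buffer-cycle Cy3 intensity per cluster, averaged per switch-domain sequence, excluding clusters outside 100-1000 RFU.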

± gives the standard deviation of the averaged measurements.
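Further: ATP exposure 15 min at 22 °C before imaging.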

As to TGGGAAGACC, the switch fluorescence ratio is 1.02 ± 0.025.
Under TGGGAAGAGA stands 1.02 ± 0.018; under TGGGAAGGGA, 1.2 ± 0.37; under TGGGAAGGGT, 0.996 ± 0.059.
Under TGGGAAGGTA stands 0.999 ± 0.029; under TGGGAATATC, 1.05 ± 0.028.
As for TGGGACACAG, the switch fluorescence ratio came to 1.004 ± 0.007.
On to TGGGACATGT, for which the switch fluorescence ratio worked out at 1.02 ± 0.019.
Under TGGGACCGCG stands 1.03 ± 0.084; under TGGGACGGTA, 1 ± 0.022; under TGGGAGACAA, 0.9815 ± 0.001.
For the sequence TGGGAGCAGC, the switch fluorescence ratio came to 1.02 ± 0.038.
On to TGGGAGCCTG, for which the switch fluorescence ratio is 0.987 ± 0.015.
With TGGGAGGGAT, the switch fluorescence ratio is 0.989 ± 0.021.
In the case of TGGGAGGGGC it was 1.01 ± 0.021.
Regarding TGGGAGTATT, the switch fluorescence ratio is 0.9815 ± 0.0069.
TGGGAGTCGC: the switch fluorescence ratio was 0.97 ± 0.027.
For the sequence TGGGATAAAA, the switch fluorescence ratio amounted to 1.01 ± 0.044.
Under TGGGATAACT stands 0.99 ± 0.038; under TGGGATAGTT, 1.024 ± 0.0069; under TGGGATCGAG, 0.9719 ± 0.0032.
On to TGGGATCGTT, for which the switch fluorescence ratio came out at 0.98 ± 0.015.
Take TGGGATGCGT: the switch fluorescence ratio was determined as 0.988 ± 0.015.
Consider TGGGATGGGA, for which the switch fluorescence ratio was 1 ± 0.024.
For TGGGATGTTT, the switch fluorescence ratio was 0.982 ± 0.026.
As to TGGGATTAGA, the switch fluorescence ratio worked out at 1.021 ± 0.008.
As for TGGGATTATC, the switch fluorescence ratio worked out at 1.02 ± 0.027.
Under TGGGATTCCC stands 1.01 ± 0.017.
For TGGGATTGAA, the switch fluorescence ratio stood at 0.9806 ± 0.0079.
With TGGGCAGAAG, the switch fluorescence ratio amounted to 0.9744 ± 0.0053.
On to TGGGCAGGAT, for which the switch fluorescence ratio turned out to be 1.01 ± 0.041.
On to TGGGCATTGG, for which the switch fluorescence ratio came out at 1.01 ± 0.018.
TGGGCGCAGT: the switch fluorescence ratio is 0.986 ± 0.012.
In the case of TGGGCGTTTA, the switch fluorescence ratio turned out to be 1.04 ± 0.026.
For the sequence TGGGCTCTTT, the switch fluorescence ratio came to 1 ± 0.019.
On to TGGGCTGCGG, for which the switch fluorescence ratio turned out to be 0.974 ± 0.04.
On to TGGGCTTATC, for which the switch fluorescence ratio is 1.012 ± 0.0097.
In the case of TGGGGAAACT, the switch fluorescence ratio turned out to be 1.15 ± 0.23.
Under TGGGGAACAA stands 1 ± 0.055; under TGGGGAATAT, 1.18 ± 0.38; under TGGGGAATGG, 1 ± 0.05.
Under TGGGGACGTT stands 0.971 ± 0.056; under TGGGGAGCAA, 1.73 ± 0.074.
As for TGGGGAGTGG, the switch fluorescence ratio was found to be 1.02 ± 0.065.
As to TGGGGAGTTA, the switch fluorescence ratio turned out to be 0.992 ± 0.021.
As to TGGGGATCGT, the switch fluorescence ratio worked out at 0.982 ± 0.026.
As to TGGGGATCTA, the switch fluorescence ratio was determined as 1.002 ± 0.006.
Turning to TGGGGATCTG, the switch fluorescence ratio worked out at 0.985 ± 0.03.
Consider TGGGGATCTT, for which the switch fluorescence ratio was found to be 0.972 ± 0.057.
Under TGGGGATGAT stands 1 ± 0.022; under TGGGGATTAC, 0.983 ± 0.012; under TGGGGATTCC, 1.01 ± 0.016.
In the case of TGGGGATTGA it was 1 ± 0.03; in that of TGGGGATTTC, 1.1 ± 0.16.
Under TGGGGATTTG stands 0.99 ± 0.032.
In the case of TGGGGCCCGG, the switch fluorescence ratio came out at 0.984 ± 0.019.
In the case of TGGGGCCTGG it was 1.1 ± 0.23.
In the case of TGGGGCCTGT it was 0.978 ± 0.023.
In the case of TGGGGCGGGG it was 0.983 ± 0.018; in that of TGGGGCGGTG, 1.001 ± 0.0085.
Take TGGGGCGTAT: the switch fluorescence ratio worked out at 1.04 ± 0.039.
Take TGGGGCTACA: the switch fluorescence ratio stood at 0.983 ± 0.056.
With TGGGGCTACC, the switch fluorescence ratio came to 1.06 ± 0.093.
For the sequence TGGGGCTCAG, the switch fluorescence ratio worked out at 0.986 ± 0.027.
On to TGGGGCTTCG, for which the switch fluorescence ratio worked out at 0.92 ± 0.077.
Consider TGGGGCTTGA, for which the switch fluorescence ratio was determined as 0.9684 ± 0.005.
As to TGGGGG, the switch fluorescence ratio amounted to 1 ± 0.033.
On to TGGGGGAAAG, for which the switch fluorescence ratio stood at 0.993 ± 0.026.
As to TGGGGGAACA, the switch fluorescence ratio was found to be 0.989 ± 0.018.
As for TGGGGGAAGG, the switch fluorescence ratio came out at 1.03 ± 0.061.
In the case of TGGGGGACCT, the switch fluorescence ratio stood at 1.09 ± 0.1.
In the case of TGGGGGACTA it was 0.967 ± 0.033; in that of TGGGGGATTG, 0.987 ± 0.031; in that of TGGGGGCACA, 1.0343 ± 0.00026.
For the sequence TGGGGGCCTG, the switch fluorescence ratio amounted to 0.99 ± 0.033.
TGGGGGCCTT: the switch fluorescence ratio came to 1.02 ± 0.053.
Regarding TGGGGGCGGC, the switch fluorescence ratio worked out at 1.046 ± 0.0061.
TGGGGGGCCA: the switch fluorescence ratio is 1 ± 0.027.
Take TGGGGGGCGG: the switch fluorescence ratio was 1.02 ± 0.03.
Take TGGGGGGGAT: the switch fluorescence ratio is 0.993 ± 0.026.
With TGGGGGGGGA, the switch fluorescence ratio came out at 1.02 ± 0.036.
For TGGGGGGGTC, the switch fluorescence ratio is 0.988 ± 0.048.
On to TGGGGGGTCA, for which the switch fluorescence ratio was 0.993 ± 0.02.
Regarding TGGGGGGTGC, the switch fluorescence ratio is 1.13 ± 0.4.
Take TGGGGGTATA: the switch fluorescence ratio is 1.03 ± 0.06.
In the case of TGGGGGTCAT it was 1.05 ± 0.061.
Turning to TGGGGGTCCC, the switch fluorescence ratio came out at 0.991 ± 0.017.
As for TGGGGGTCTA, the switch fluorescence ratio turned out to be 0.971 ± 0.031.
For TGGGGGTT, the switch fluorescence ratio was 0.997 ± 0.032.
Take TGGGGGTTAC: the switch fluorescence ratio was found to be 1.08 ± 0.13.
Turning to TGGGGGTTCG, the switch fluorescence ratio worked out at 0.99 ± 0.035.
As for TGGGGGTTG, the switch fluorescence ratio amounted to 1 ± 0.032.
In the case of TGGGGGTTTG it was 0.993 ± 0.021; in that of TGGGGTATAT, 0.996 ± 0.015; in that of TGGGGTGCGG, 0.975 ± 0.026.
As for TGGGGTGCTG, the switch fluorescence ratio is 1.05 ± 0.016.
Turning to TGGGGTGGGA, the switch fluorescence ratio turned out to be 0.991 ± 0.029.
As to TGGGGTGGGG, the switch fluorescence ratio came to 1.05 ± 0.09.
Under TGGGGTGTCT stands 0.993 ± 0.039; under TGGGGTTACT, 1.01 ± 0.015; under TGGGGTTCAT, 0.985 ± 0.025.
Turning to TGGGGTTCGG, the switch fluorescence ratio was 1 ± 0.079.
Consider TGGGGTTCTA, for which the switch fluorescence ratio came out at 0.992 ± 0.026.
On to TGGGGTTGCC, for which the switch fluorescence ratio was determined as 0.96 ± 0.026.
Turning to TGGGGTTGGC, the switch fluorescence ratio was found to be 1.17 ± 0.34.
With TGGGTAAACG, the switch fluorescence ratio stood at 1.023 ± 0.0035.
For the sequence TGGGTAAGGA, the switch fluorescence ratio was 1 ± 0.026.
For the sequence TGGGTAATGT, the switch fluorescence ratio was found to be 1.01 ± 0.023.
On to TGGGTAATTT, for which the switch fluorescence ratio worked out at 1.03 ± 0.055.
With TGGGTACAGC, the switch fluorescence ratio worked out at 1.02 ± 0.04.
Consider TGGGTAGGTC, for which the switch fluorescence ratio was 1.014 ± 0.0014.
Turning to TGGGTAGTAA, the switch fluorescence ratio turned out to be 0.993 ± 0.016.
As for TGGGTATCGG, the switch fluorescence ratio was found to be 0.994 ± 0.021.
TGGGTATCGT: the switch fluorescence ratio turned out to be 0.977 ± 0.029.
Under TGGGTATTAC stands 1.14 ± 0.26; under TGGGTCAATG, 0.9822 ± 0.0078; under TGGGTCCAAA, 1.006 ± 0.0076.
Take TGGGTCGCCG: the switch fluorescence ratio stood at 0.964 ± 0.012.
For the sequence TGGGTCTAAG, the switch fluorescence ratio is 0.9669 ± 0.0093.
For TGGGTCTAGA, the switch fluorescence ratio is 0.975 ± 0.023.

These data come from the supplement of paper PMC10126150.
